Laboratory results reported in the DeepSol protein solubility set.

assay: soluble on expression in E. coli; label from the status in PepcDB or PDB records

| Sequence | soluble on expression in E. coli |
| --- | --- |
| MNAPVKFEYFKNPKNRELTAVELEAFAKELDQIKQEVLDDIGEKDAKYIRRVYSAVRYSSMLGRACLFAGWFPPAWILGTGLLGFSKIMENMELGHNVMHGQYDWMNDPKFNGQTYEWDTVGTADNWRQTHNYKHHTYTNIKGIDDDIGYGLLRLFPEQRWKPGFLLQPIYSIPFCMLFQWGVAIQNLEIGKLIYKRKTWKQFKQECKPTQKKIGKQLFKDYVFFPLIAGPAALPVFTGNLVANGIRNAWTFSIIFCGHFTKDVEVFPKTVLQNETRGHWYMRQIRGSSNLTGSEAFHILTGHLSHQIEHHLFPDVPARRYRQMAPKVEAVCKKYGLNYNNASLFKQYGQVLGRIVKYAFPFKKLEHHHHHH | soluble |
| MNAQRVVVMGLGNLLWADEGFGIRVAERLYARYHWPEEVEIVDGGTQGLNLLGYVEQASHLLLLDAIDYGLAPGSLRTYAGEKIPAYLSAKKMSLHQNSFSEVLALADIRGHLPCHIALVGLQPALLDDYGGSLSEIARSQLPAAEQAALAQLAAWGIVPQANEVARCLNYKCLSMENYEGVRIRQYQTRLEGKRSGE | not soluble |
| MNDAPPFDLDAYLARIGYTGPRNASLDTLKALHFAHPQAIPFENIDPFLGRPVRLDLAALQDKIVLGGRGGYCFEHNLLFMHALKALGFEVGGLAARVLWGQSEDAITARSHMLLRVELDGRTYIADVGFGGLTLTAPLLLEPGREQKTPHEPFRIVEADDHFRLQAAIGGDWRSLYRFDLQPQYEVDYSVTNYFLSTSPTSHFLSSVIAARAAPDRRYALRGNRLSIHHLGGRTEQTEIATAADLADTLQGLLGIIIPDRTAFEAKVRETKIVETNA | soluble |
| MNDYTQQLQGKKDYLKTLFAGLDVPEWEVYESPDKHYRMRAEFRIWHEGGEMFYAMFEKGQKASGASMIRCDRFEAASEAVNRLMPELIAAAAQSPELKKRWYAVEFLSTLSGEMLVTMIYHKRLDAEWMQAAQALQQQLDISVIGRSRGQKIVLKQDYVTETLKVGNRDFRYRQIEGS | not soluble |
| MNEADMLFSVTVPGSTANLGPGFDSVGMALSRYLKLTVFESDKWSFEAETETVAGIPAGTDNLIYQVAKRTADLYGKEMPPVHVKVWSDIPLARGLGSSAAAIVAAIELADELCGLKLSEADKLHLASLEEGHPDNAGASLVGGLVIGLHEDDETQMIRVPNADIDVVVVIPFYEVLTRDARDVLPKEFPYADAVKASAVSNILIAAIMSKDWPLVGKIMKKDMFHQPYRAMLVPELSKVEHVAEMKGAYGTALSGAGPTILVMTEKGKGEELKEQLALHFPHCEVDALTVPKEGSIIERNPLYQVKSV | not soluble |
| MNEALDDIDRILVRELAADGRATLSELATRAGLSVSAVQSRVRRLESRGVVQGYSARINPEAVGHLLSAFVAITPLDPSQPDDAPARLEHIEEVESCYSVAGEESYVLLVRVASARALEDLLQRIRTTANVRTRSTIILNTFYSDRQHIP | soluble |
| MNEEQRKAGTINILAERDRKAEKDYSKYFEQVYQPPSLKEAKKRGKQEVQYNRDFHIDEKYKGMGKGRTFLIKTYGCQMNAHDTEVMAGILNALGYSATSDINEADVILINTCAIRENAENKVFSEIGNLKHLKKERPDCLIGVCGCMSQEESVVNKILKSYQNVDMVFGTHNIHHLPEILEEAYLSKAMVVEVWSKEGDIIENLPKVRDGHIKAWVNIMYGCDKFCTYCIVPFTRGKERSRRPEDIIDEVRELAREGYQEITLLGQNVNSYGKDIEGLDYELGDLLEDISKIDIPRVRFTTSHPWDFTDRMIEVIAKGGNIVPHIHLPVQSGNNQVLKIMGRKYTRESYLDLVSRIKEAIPNVALTTDIIVGYPNETEEQFEETLSLYDDVQFEHAYTYLYSQRDGTPAAKMKDNVPLEVKKERLQRLNKKVGIYSQQAMSQYEGKIVTVLCEGSSKKDENVLAGYTDKNKLVNFKGPRESIGKLVDVKIDEAKQYSLNGTFIQEHQRSMVTQLEHHHHHH | soluble |
| MNEIKTSCASTDRKWSTWESIDWNKCVIAVNKLQARIVKAQKAGKHGRVKSLQWVLTHSFYAKALAVKRVTSNSGSDTAGVDKVKWSTPNARFKAIGELKRRGYKPQPLKRVNIKKSNGKLRPLGIPTMKDRAMQALYLLALEPVSETTADSNSYGFRKERSTGDAREQCFCVLAKKASPEWIMEGDIQGCFDHISHEWLLNNIPMDKVMLRKWLKCGFVFNKELFPTEEGTPQGGIISPTLANMTLDGLQTMLAEKYHKKFVTRKTTTYYPKVHLVRYADDFIITGRNKEALEEIKPLVVDFLKERGLTLSEEKTKITHIDDGFDFLGYNIRKYKGVLLIKPSQKSLKKFMQKIRGIIDSNKGSKQESLIRLLNPVITGWVNYYKNCVASDTFRKADYLIFEKLWQWATRRHPKKGKYWIADRYFTRVKNRNWCFVANFKKGKTDDRIALKRLYDTKITRYVKVKGEANPFAPEWTEYFEKRKTYKMLQSLNGRKSLLYMWERQNHLCPVCGKPIDKEHPWGTSQQTVNGKKVNNLLHDSCRRKVIQTNKM | not soluble |
| MNEKFRTDLAHTFGIALEEQTDVLSFHDNDGHEWILECASQSEILFFYCYLLNSESIQINSILEMNSNRELLGMFFLSLKDDNILLNIAFPADKIDITEFANLMENGYLLKNEIIRSLSSRPTDFLP | not soluble |
| MNELTKQMQQIMHPRAVLVAYECETTGYSTPRSYLELRPVNEKGRMGAGIPVTYEFMNSLVESYTESMSGIPHGRIPGNMLLCDSRKGRERYIWYNPPQKRKMYFQDGLHITDGTFNVPGVIYVVERECMDIHAFKGAIPEERTELYLAPFFNVAGANVCLGSSSPKKPQDMDFLEFQEYWEKRFWMSEFSHLGGNRNPTRSNLVSVTEHARNNPFDYSELQQSGKKLKDILA | not soluble |
| MNEMWLHRADLAESAINERHASRLWMLPRTNLAVVAWPPTAKERLFYRWHYWWQAHYLDCLIDAASRRTTKARKQRIRDTIVGIRLRNLGRLTKNNYYDDKSWLALALDRERRLNKRAKREYLRVLEGNIAAGQDDIQGVLPWRVGEHFFNVPTNGPAAIMLARNGEVEQARKLVDWIFDNLINDKGLVMDGLRMSMRGPEIVDPVYPYCQGVVIGACIEIAEALPFEESVQYLAHARAVIHAVAKEMATPEGVINAATGDGDGGLFKGILMRYLADAAVRLPEDGPANIATKKIAKRLVMASAESVWEHRLEVDGLPVFATDWCDDARLPHNYGVGGSALSDIVRVVRIDERDLSVQLSGWMLLEAAARVSLVDLEHHHHHH | soluble |
| MNENGATPVAAARRHRPLPAERATSNSNETGLLINVIRSLTSSVSEDQREVEKSRLEKGYKESGALIDRLVKNHQQDVEKCLVSFRDVSSKISNCRERIHNVRNALHTVKSLLELRRDDLKKLWHENAQQKSVCEIMAKLEELREAPSKIENLISKEQYQQAADTVTESRELINGRLSRVEGLSHLSAEIERFTKILIDKINDTLVNMLVVEPFEKHLLHIVRTIPEHRINQNAYCHSLSTKSRSGSGSVSSFSDVSAKSRIVSSVEALSTLFRTVEERHWDVDRLMMLGKNMIDKMIVNTVQVMKIGANIDESNEGDTTHLKQLMQLLSAQFDSASQQHAEFGVLVEKQLGRKDVVTSFWRSAQSAIEVVVSEHLDINPLLEKQNVLGTASRKQLFRFENTACATPNANSSSHRTKAVICKPSAYNIKVIFPILSRLMETTEKNINDSPCELRRFMHSFVMEVFVERVKGELASRIEGALRGGEAVRVSTNKKILPSCEKVLNLCKEVQDLIVSIDLYADRFAALWLLVLTDYFKNMTDVYDRMTPKNPDPSLPNSEALPTRRQKISAAWTADDDISRLLMSLPNWHAASISPMTPAVESELDVGERNKRESEILIGNLGTQAQNSLSESDLITDMNDIKMFASLHESLRWFSDEIRELVHSLPANVKMMLDTCMVQVRLKDGQMIDNNSVPSAIEDCVRRLESIADSCLLLLHIEIRVHCFFHLAPLAKYRNTSSHNEVDPEVVALGKDLHQFHDNLKDVLSPAKLSYVFDGLGHLCASLFIHYSQFMPRLTEAAKKRVCRNVWGVQQRLSRITNRRESDLDRARAFFDLLLDNTPDGILAIVPEKRSQFTATELNYLLALSVRSDKTLASQPGALEKRQMVLNSILNQKK | not soluble |
| MNEPPVSVVLPTYDRPEILRNAVKSVQEQTYRHIELVVVDDHSPTPAADTLSPLSFDELTVEIIRHEENRGANEARNTGIRESTGEYIAFLDDDDDWAPSKIEKQVAVFREASPEVGVVYTGSEYVYDDYVRTVVFSLEGDVTEEMLRGRSLGEFTTLMVRRDVAMAAGLPDTDFPSWQDRDWLLRLSCHCKFKTVPEALTTRRRKTGEDSISDNFEEKRDISYPLFIEKHRDLAAEYGWRCERAFMAATTESLGQEALKNGYYADAKKYFLKALRYHPLDRSRLVYALVAYGGKYTYGAAHTLASLLHRVRTDTIHKLEHHHHHH | not soluble |
| MNEQWMSALPLDNVKDISPVSGGDVNEAFKVTTVEEDIFFLLVQRQRSEAFYAAEIAGLNEFENAGITAPRVIASGEINGDAYLLLSFLEEGSQGSQRELARLVARMHSQYQQDNKFGFRLPHEGADISFDNSWTETWKEIFINRRMDHLQDELLRVGLWKQEDKKMYERVRKVIVDELSNHTSKPSLLHGDLWGGNYMFLTNGQPALFDPAPLYGDREFDIGITTVFGGFTQEFYDEYNQQLPLAKGSQKRIEFYRLYLLMIHLLKFGGMYADSVQRSMKIILELEHHHHHH | soluble |
| MNERHVLVVFPHPDDEAFGVSGTIAEHAQNGTPVTYACLTLGEMGRNMGVPPFANRETLPHIRKQELEEACRILGIHDLRLLGYRDKTVEFEDEEELADQIAAIVAETNPSLVITFYPGYSVHPDHDACGAAVIRALKRWPKEERPTVHCVAFAKNCEQDLGQPDVVRDVSSVIDTKLAAIRAHRSQTEGLMQAASKRGDALAWLKTERFWTYRWDD | soluble |
| MNETIAFRPEGRASIKDVVVNYTLASLDELEQLHPALNLLAHPSIVRGSHDFFVRCYDAGVQHAQAGAAETVAVLPDSLPQERQRSGLLCAAAGRLDALRQPLTHNRLCDLASQFCAGMADVDSETRSGFYTVRSISLPVYRRLLRDQHSHGVCLQQALLHLLAWKSDSPWARQQAQRLLWQGGVLGDKGEFALMTLDDELRERQIGWPGLWSLLAVTGFLAKFPAGPIFAD | not soluble |
| MNFDEIDKTFGTKNRDQGYDLLKARLDKGDRSVEVLWRLAQVIHEKSACVPKAQRKASVTEGLKFAEEAVQKDPNHFKALKWNAVLTGQATEYMATKEKLECSKKFKELLDKTLAKEPKDTAVLHLRGRYKYSVASLTWLEKKLAATFYQQPPSHSYEEANEDFLAAYKVNPKWMENTFYVSKCYVAIKDKANARKYLTEVCDIEPYSDAEQEFADDAKQMLSKL | soluble |
| MNFGESYCSFHCSWCQPLLDSLSKESCWYLNFQSVDESQFYDETYFASPKNKTPRVSGKLKEKLLQFVKTPEDLDRPRKRAIIHICRRIKKITGQDIDPEYISKLLYGLKRARRDKFRKINREIFRGLNWDFTQFEKCTFKCVLN | not soluble |
| MNFTEMTSMEPIVTESRTPIPPVTDADRKAAFGNLQGHAIHDSAINYLVLLDQLEWQRSDNTNNFSWSVNSWIGGDTDRIWLKSEGERSNGETEAAEAQLLWGHAVGPWWDLVAGVRQDFRPASARTWAAVGFQGLALYNFESEITGFVSNGGKAALRLGGEYDVLLTNRLILQPSYEVNFYSQDDESRGRGRGLTDTELGLRLRYEIRREFAPYIGVSWNQLYGKTSDMAKREGEKDHQVVFLAGARIWFLEHHHHHH | not soluble |
